In patent publication US7064106B2, “Gene and use thereof” (Takeda Chemical Industries, Ltd., priority 1999, dated 2006):
Where no end group is shown, it is not given here.

How the values were obtained:
[1] = target: T1, binding of IRAP-His to GST-MD364N (UniProt P97629+Q9Y613); assay: Binding inhibition test / screening of compounds that inhibit the binding of IRAP to human MD36
T1 construct: to construct plasmid pET21-IRAP (1–109); made in house; host or cells: E. coli (BL21 for GST-MD36N4)
T1 sequence (Q9Y613 951-1164): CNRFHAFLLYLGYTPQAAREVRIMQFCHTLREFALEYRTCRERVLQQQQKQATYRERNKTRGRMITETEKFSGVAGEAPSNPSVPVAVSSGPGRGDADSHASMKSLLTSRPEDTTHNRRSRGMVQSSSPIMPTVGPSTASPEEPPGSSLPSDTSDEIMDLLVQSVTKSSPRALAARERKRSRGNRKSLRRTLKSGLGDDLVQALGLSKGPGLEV
T1 sequence (P97629 1-109): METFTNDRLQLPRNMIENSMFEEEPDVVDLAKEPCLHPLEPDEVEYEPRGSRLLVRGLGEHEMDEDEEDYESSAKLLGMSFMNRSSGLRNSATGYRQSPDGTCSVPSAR
Excerpt: The C terminal part (partial peptide encoded by the partial base sequence of 2995–3674 from the 5′ end in SEQ ID NO:2) of SEQ ID NO:1 (full-length cDNA of MD36) was used as human MD36. This DNA fragment was inserted into pGEX expression vector (Amersham Pharmacia) to construct expression plasmid pGEX-MD36N4 capable of expressing the human MD36 partial protein in the form fused to GST (glutathione S-transferase) protein (GST-MD36N4 protein) under control of tac promoter. However, the protease recognition site in these junctions was removed by applying PCR. Using pGEX-MD36N4, E. coli BL21 was transformed and the transformants were cultured in LB medium in a conventional manner while inducing expression by IPTG. After culture, the cells collected were disrupted by sonication followed by centrifugation of the cell homogenate. As a result, most of the GST-MD36N4 protein were present in the insoluble fraction. […]
Protein-protein binding test was carried out by the procedure shown below. […] After the wells were again rinsed 3 times with TBS-T, the IRAP-His protein remained in the wells was quantitatively assayed using anti-Penta-His antibody (Qiagen, Inc.). […] IRAP-His (1.0 μg/ml) or anti-Penta-His antibody (diluted to 2000 fold) and both were added to the GST-MD364N-coated or uncoated wells, and after washing with TBS-T, the amount of His-Tag remained in the wells was quantified. […]

profilin I = assay: Yeast two-hybrid HIS3 growth test, MD36 and profilin family; assay type: cell-based; details: S. cerevisiae Y190; 40 mM 3-amino-1,2,4-triazole
Excerpt: (§1) The protein-protein interaction between MD36 and the profilin family was detected by the yeast two-hybrid system. Based on pGBT9 (CLONTECH), expression plasmids were constructed to express the coding regions of profiling I (Evangelista et al., Science, 276, 118–122, 1997; Imamura et al., EMBO J., 16, 2745–2755, 1997; Tanaka, Biochem. Biophys. Res. Commun., 267, 479–481, 2000), profilin II (Schluter et al., Biohim. Biophys. Acta, 1359, 97–109, 1997), and profiling IIL in the form fused to yeast GAL4-DNA-binding domain protein under control of yeast ADH1 promoter. These plasmids were named pG-PFNI, pG-PFNII and pG-PFNIII, respectively (yeast selection marker was TRP1). On the other hand, expression plasmids that express the full-length sequence (SEQ ID NO:1) of MD36, which is IRAP-BP protein, or the coding region from this N-terminus to the sequence (SEQ ID NO:33) including the proline-rich domain in the form fused to yeast […] activated domain protein under control of yeast ADH1 promoter was constructed based on pACT2 (CLONTECH), and named pACT-MD36 and pACT-MD36NT, respectively (yeast selection marker was LEU2). pG-PFNI, pG-PFNII, pG-PFNIII or, pGBT9 for control was co-transfected to yeast Saccharomyces cerevisiae Y190 together with pACT-MD36 or pACT-MD36NT, and yeast strains bearing plasmids from the two were selected on SD medium free of tryptophan and leucine. S. cerevisiae Y190 is originally a histidine auxotrophic strain but when the introduced proteins on the plasmids show the interactions, reporter gene HIS3 is expressed and the strain becomes capable of growing on a histidine-free plate. The yeast strain acquired was spread on tryptophan, leucine and histidine-free SD medium supplemented with 40 mM 3-amino-1,2,4-triazole.

profilin II = target: T2, profilin II (Homo sapiens, UniProt P35080); assay: as above; assay type: cell-based; details: S. cerevisiae Y190; 40 mM 3-amino-1,2,4-triazole
T2 construct: expressed in transfected cells; host or cells: Saccharomyces cerevisiae Y190
T2 sequence (P35080 1-140 isoform P35080-2): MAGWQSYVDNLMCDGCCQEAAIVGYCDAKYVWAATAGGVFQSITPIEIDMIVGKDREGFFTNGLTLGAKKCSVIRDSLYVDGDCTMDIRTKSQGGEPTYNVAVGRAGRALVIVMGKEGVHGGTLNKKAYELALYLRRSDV
Excerpt: as §1

profilin IIL = target: T3, profilin IIL (Homo sapiens, UniProt P35080); assay: as above; assay type: cell-based; details: S. cerevisiae Y190; 40 mM 3-amino-1,2,4-triazole
T3 construct: expressed in transfected cells; host or cells: Saccharomyces cerevisiae Y190
T3 sequence (P35080 1-140): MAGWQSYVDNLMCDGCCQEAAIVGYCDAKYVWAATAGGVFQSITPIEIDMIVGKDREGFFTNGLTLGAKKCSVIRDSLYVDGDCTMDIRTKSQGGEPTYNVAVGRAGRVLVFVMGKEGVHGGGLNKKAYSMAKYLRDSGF
Protocol: Using as a template human skeletal muscle-derived cDNA and as an enzyme Pfu polymerase (STRATAGENE), the reaction was carried out at 95° C. for 30 seconds, at 65° C. for 45 seconds and at 72° C. for 60 seconds, for 35 cycles. As a result of PCR, the DNA fragment of 745 bp was found, in addition to the DNA fragment of 423 bp or profilin II, and named profilin IIL. The base sequence for cDNA of profilin IIL is shown by SEQ ID NO:29, and the amino acid sequence of profilin II is shown by SEQ ID NO:28.
The protein-protein interaction between MD36 and the profilin family was detected by the yeast two-hybrid system. Based on pGBT9 (CLONTECH), expression plasmids were constructed to express the coding regions of profiling I (Evangelista et al., Science, 276, 118–122, 1997; Imamura et al., EMBO J., 16, 2745–2755, 1997; Tanaka, Biochem. Biophys. Res. Commun., 267, 479–481, 2000), profilin II (Schluter et al., Biohim. Biophys. Acta, 1359, 97–109, 1997), and profiling IIL in the form fused to yeast GAL4-DNA-binding domain protein under control of yeast ADH1 promoter. These plasmids were named pG-PFNI, pG-PFNII and pG-PFNIII, respectively (yeast selection marker was TRP1). […]

Which “binding inhibition (reduced amount of His-Tag remained on the plate)” value ([1]; library compound in DMSO, final concentration 1 μM) does the source give for O=C(O)c1cc(O)c2c(c1)[C@@H]([C@H]1c3cc(C(=O)O)cc(O)c3C(=O)c3c(OC4OC(CO)C(O)C(O)C4O)cccc31)c1cccc(OC3OC(CO)C(O)C(O)C3O)c1C2=O (some centres unmarked) [Compound 1] here?
Its value is “exhibited binding inhibition”.

Which “inhibition of the binding of IRAP-His to GST-MD364N” value ([1]; biotinylated IRAP (55–82) peptide added, several amounts (μg/well)) does the source give for “IRAP (55–82): chemically synthesized biotinylated peptide, amino acids 55–82 from the N terminus of SEQ ID NO:11 (IRAP) (VRGLGEHEMDEDEEDYESSAKLLGMSFM; also: biotinylated; listed as Homo sapiens) [reference compound]” here?
The value was “inhibited”.

B1: MD36NT: MD36 from the N terminus to the sequence including the proline-rich domain (SEQ ID NO:33) (protein, listed as Homo sapiens)
chain: MAGGEDRGDGEPVSVVTVRVQYLEDTDPFACANFPEPRRAPTCSLDGALPLGAQIPAVHRLLGAPLKLEDCALQVSPSGYYLDTELSLEEQREMLEGFYEEISKGRKPTLILRTQLSVRVNAILEKLYSSSGPELRRSLFSLKQIFQEDKDLVPEFVHSEGLSCLIRVGAAADHNYQSYILRALGQLMLFVDGMLGVVAHSDTIQWLYTLCASLSRLVVKTALKLLLVFVEYSENNAPLFIRAVNSVASTTGAPPWANLVSILEEKNGADPELLVYTVTLINKTLAALPDQDSFYDVTDALEQQGMEALVQRHLGTAGTDVDLRTQLVLYENALKLEDGDIEEAPGAGGRRERRKPSSEEGKRSRRSLEGGGCPARAPEPGPTGPASPVGPTSSTGPALLTGPASSPVGPPSGLQASVNLFPTISVAPSADTSSERSIYKLHQTASVWAPESPPVPQSPPGQARLEARFLENVAAAETEKQVALAQGRAETLAGAMPNEAGGHPDARQLWDSPETAPAARTPQSPAPCVLLRAQRSLAPEPKEPLIPASPKAEPIWELPTRAPRLSIGDLDFSDLGEDEDQDMLNVESVEAGKDIPAPSPPLPLLSGVPPPPPLPPPPPIKGPFPPPPPLPLAAPLPHSVPDSSALPTKRKTVKLFWRELKLAGGH
For B1, which “growth of yeast on tryptophan, leucine and histidine-free SD medium” value (shortened to “growth … leucine and histidine-free SD medium”) (profilin I) is on record?
Its value is “did not grow”.

What about the “growth … leucine and histidine-free SD medium” value (profilin II) of the same molecule?
The value was “did not grow”.

And the “growth … leucine and histidine-free SD medium” value (profilin IIL)?
Its value is “Growth of the yeast was noted”.
